From the Human Domainome abundance scans (Beltran et al. 2025) come the findings set out here.

B1: Far upstream element-binding protein 1, residues 98 to 169; numbered along this chain, Q96AE4 (parent)
chain: RSVMTEEYKVPDGMVGFIIGRGGEQISRIQQESGCKIQIAPDSGGLPERSCMLTGTPESVQSAKRLLDQIVE

± gives the uncertainty stated by the source.

In this data set the parent is B1. The data set is described as follows: abundance fitness (aPCA) (normalised: wild type 0, dead -1); higher = more abundant; growth selection in yeast, the domain comes from the species named. The conditions noted are these: Homo sapiens.
In the case of RSVWTEEYKVPDGMVGFIIGRGGEQISRIQQESGCKIQIAPDSGGLPERSCMLTGTPESVQSAKRLLDQIVE [M4W], the abundance fitness was -0.165 ± 0.03.
The same measure for RSVRTEEYKVPDGMVGFIIGRGGEQISRIQQESGCKIQIAPDSGGLPERSCMLTGTPESVQSAKRLLDQIVE [M4R]: -0.165 ± 0.023; for RSVSTEEYKVPDGMVGFIIGRGGEQISRIQQESGCKIQIAPDSGGLPERSCMLTGTPESVQSAKRLLDQIVE [M4S]: -0.135 ± 0.028; for RSVQTEEYKVPDGMVGFIIGRGGEQISRIQQESGCKIQIAPDSGGLPERSCMLTGTPESVQSAKRLLDQIVE [M4Q]: -0.085 ± 0.03.
With RSVTTEEYKVPDGMVGFIIGRGGEQISRIQQESGCKIQIAPDSGGLPERSCMLTGTPESVQSAKRLLDQIVE [M4T], the abundance fitness is -0.06 ± 0.031.
As for RSVATEEYKVPDGMVGFIIGRGGEQISRIQQESGCKIQIAPDSGGLPERSCMLTGTPESVQSAKRLLDQIVE [M4A], the figure is -0.07 ± 0.027; as for RSVITEEYKVPDGMVGFIIGRGGEQISRIQQESGCKIQIAPDSGGLPERSCMLTGTPESVQSAKRLLDQIVE [M4I], 0.015 ± 0.035.
As for RSVPTEEYKVPDGMVGFIIGRGGEQISRIQQESGCKIQIAPDSGGLPERSCMLTGTPESVQSAKRLLDQIVE [M4P], the figure is -0.245 ± 0.032; as for RSVYTEEYKVPDGMVGFIIGRGGEQISRIQQESGCKIQIAPDSGGLPERSCMLTGTPESVQSAKRLLDQIVE [M4Y], -0.007 ± 0.041; as for RSVDTEEYKVPDGMVGFIIGRGGEQISRIQQESGCKIQIAPDSGGLPERSCMLTGTPESVQSAKRLLDQIVE [M4D], -0.079 ± 0.036.
As to RSVHTEEYKVPDGMVGFIIGRGGEQISRIQQESGCKIQIAPDSGGLPERSCMLTGTPESVQSAKRLLDQIVE [M4H], the abundance fitness is -0.074 ± 0.045.
As for RSVCTEEYKVPDGMVGFIIGRGGEQISRIQQESGCKIQIAPDSGGLPERSCMLTGTPESVQSAKRLLDQIVE [M4C], the figure is 0.01 ± 0.032; as for RSVGTEEYKVPDGMVGFIIGRGGEQISRIQQESGCKIQIAPDSGGLPERSCMLTGTPESVQSAKRLLDQIVE [M4G], -0.133 ± 0.023; as for RSVFTEEYKVPDGMVGFIIGRGGEQISRIQQESGCKIQIAPDSGGLPERSCMLTGTPESVQSAKRLLDQIVE [M4F], -0.001 ± 0.035.
On to RSVNTEEYKVPDGMVGFIIGRGGEQISRIQQESGCKIQIAPDSGGLPERSCMLTGTPESVQSAKRLLDQIVE [M4N], for which the abundance fitness is -0.027 ± 0.037.
The same measure for RSVLTEEYKVPDGMVGFIIGRGGEQISRIQQESGCKIQIAPDSGGLPERSCMLTGTPESVQSAKRLLDQIVE [M4L]: -0.033 ± 0.025.
For RSVKTEEYKVPDGMVGFIIGRGGEQISRIQQESGCKIQIAPDSGGLPERSCMLTGTPESVQSAKRLLDQIVE [M4K], the abundance fitness is -0.053 ± 0.034.
For the variant RSDMTEEYKVPDGMVGFIIGRGGEQISRIQQESGCKIQIAPDSGGLPERSCMLTGTPESVQSAKRLLDQIVE [V3D], the abundance fitness was -0.042 ± 0.036.
As for RSNMTEEYKVPDGMVGFIIGRGGEQISRIQQESGCKIQIAPDSGGLPERSCMLTGTPESVQSAKRLLDQIVE [V3N], the figure is -0.001 ± 0.043; as for RSFMTEEYKVPDGMVGFIIGRGGEQISRIQQESGCKIQIAPDSGGLPERSCMLTGTPESVQSAKRLLDQIVE [V3F], -0.073 ± 0.049; as for RSYMTEEYKVPDGMVGFIIGRGGEQISRIQQESGCKIQIAPDSGGLPERSCMLTGTPESVQSAKRLLDQIVE [V3Y], 0.003 ± 0.041.
As for RSIMTEEYKVPDGMVGFIIGRGGEQISRIQQESGCKIQIAPDSGGLPERSCMLTGTPESVQSAKRLLDQIVE [V3I], the figure is 0.06 ± 0.037; as for RSSMTEEYKVPDGMVGFIIGRGGEQISRIQQESGCKIQIAPDSGGLPERSCMLTGTPESVQSAKRLLDQIVE [V3S], -0.087 ± 0.027.
The same measure for RSMMTEEYKVPDGMVGFIIGRGGEQISRIQQESGCKIQIAPDSGGLPERSCMLTGTPESVQSAKRLLDQIVE [V3M]: 0.017 ± 0.036.
In the case of RSCMTEEYKVPDGMVGFIIGRGGEQISRIQQESGCKIQIAPDSGGLPERSCMLTGTPESVQSAKRLLDQIVE [V3C], the abundance fitness is -0.048 ± 0.033.
As for RSLMTEEYKVPDGMVGFIIGRGGEQISRIQQESGCKIQIAPDSGGLPERSCMLTGTPESVQSAKRLLDQIVE [V3L], the figure is -0.047 ± 0.029; as for RSGMTEEYKVPDGMVGFIIGRGGEQISRIQQESGCKIQIAPDSGGLPERSCMLTGTPESVQSAKRLLDQIVE [V3G], -0.086 ± 0.023.
Regarding RSEMTEEYKVPDGMVGFIIGRGGEQISRIQQESGCKIQIAPDSGGLPERSCMLTGTPESVQSAKRLLDQIVE [V3E], the abundance fitness is 0.004 ± 0.029.
As for RSPMTEEYKVPDGMVGFIIGRGGEQISRIQQESGCKIQIAPDSGGLPERSCMLTGTPESVQSAKRLLDQIVE [V3P], the figure is -0.092 ± 0.033; as for RSWMTEEYKVPDGMVGFIIGRGGEQISRIQQESGCKIQIAPDSGGLPERSCMLTGTPESVQSAKRLLDQIVE [V3W], -0.084 ± 0.03.
The same measure for RSTMTEEYKVPDGMVGFIIGRGGEQISRIQQESGCKIQIAPDSGGLPERSCMLTGTPESVQSAKRLLDQIVE [V3T]: -0.005 ± 0.031; for RSQMTEEYKVPDGMVGFIIGRGGEQISRIQQESGCKIQIAPDSGGLPERSCMLTGTPESVQSAKRLLDQIVE [V3Q]: -0.004 ± 0.034; for RSKMTEEYKVPDGMVGFIIGRGGEQISRIQQESGCKIQIAPDSGGLPERSCMLTGTPESVQSAKRLLDQIVE [V3K]: 0.03 ± 0.035.
Regarding RSAMTEEYKVPDGMVGFIIGRGGEQISRIQQESGCKIQIAPDSGGLPERSCMLTGTPESVQSAKRLLDQIVE [V3A], the abundance fitness was -0.058 ± 0.025.
As for RSHMTEEYKVPDGMVGFIIGRGGEQISRIQQESGCKIQIAPDSGGLPERSCMLTGTPESVQSAKRLLDQIVE [V3H], the figure is -0.043 ± 0.041.
Turning to RFVMTEEYKVPDGMVGFIIGRGGEQISRIQQESGCKIQIAPDSGGLPERSCMLTGTPESVQSAKRLLDQIVE [S2F], the abundance fitness is -0.026 ± 0.039.
Take RRVMTEEYKVPDGMVGFIIGRGGEQISRIQQESGCKIQIAPDSGGLPERSCMLTGTPESVQSAKRLLDQIVE [S2R]: the abundance fitness is -0.004 ± 0.025.
